Reference: patent US20110256127A1 (Genentech, published 2011)
Where “and” joins values, the source holds several entries; their conditions need not be identical. Equal entries are not always repeated.

B1: Wnt9b (ligand, mouse, UniProt O35468 24-359, looked up)
chain: AAYFGLTGREVLTPFPGLGTAAAPAQAGAHLKQCDLLKLSRRQKQLCRREPGLAETLRDAAHLGLLECQFQFRQERWNCSLEGRTGLLQRGFKETAFLYAVSAAALTHALARACSAGRMERCTCDDSPGLESRQAWQWGVCGDNLKYSTKFLSNFLGPKRGSKDLRARADAHNTHVGIKAVKSGLRTTCKCHGVSGSCAVRTCWKQLSPFRETGQVLKLRYDTAVKVSSATNEALGRLELWAPAKPGGPAKGLAPRPGDLVYMEDSPSFCRPSKYSPGTAGRVCSRDSSCSSLCCGRGYDTQSRMVVFSCHCQVQWCCYVECQQCAQQELVYTCKR
notes: also called purified mouse Wnt9b
B2: YW211.31 antibody (antibody, human IgG1, kappa, V domains shown)
VH: EVQLVESGGGLVQPGGSLRLSCAASGFTFTSYYISWVRQAPGKGLEWVAEISPYSGSTYYADSVKGRFTISADTSKNTAYLQMNSLRAEDTAVYYCALRARPPIRLHPRGSVMDYWGQGTLVTVSS
VL: DIQMTQSPSSLSASVGDRVTITCRASQDVSTAVAWYQQKPGKAPKLLIYSASFLYSGVPSRFSGSGSGTDFTLTISSLQPEDFATYYCQQSYTTPPTFGQGTKVEIKR
notes: also called intact YW211.31 antibody

Assays:
[1] = target: T1, LRP6.E1-E2 fragment (biotinylated, His-tagged) (Homo sapiens (Human), UniProt O75581 19-644, biotinylated (AviTag system)); test: biolayer interferometry, immobilized LRP6 E1-E2 fragment; Wnt9b at 200 nM; association then dissociation phase
T1 construct: BLI antigen from baculovirus-infected insect cells; also called LRP6 E1-E2 protein fragment; not shown: His tag and AviTag
T1 sequence: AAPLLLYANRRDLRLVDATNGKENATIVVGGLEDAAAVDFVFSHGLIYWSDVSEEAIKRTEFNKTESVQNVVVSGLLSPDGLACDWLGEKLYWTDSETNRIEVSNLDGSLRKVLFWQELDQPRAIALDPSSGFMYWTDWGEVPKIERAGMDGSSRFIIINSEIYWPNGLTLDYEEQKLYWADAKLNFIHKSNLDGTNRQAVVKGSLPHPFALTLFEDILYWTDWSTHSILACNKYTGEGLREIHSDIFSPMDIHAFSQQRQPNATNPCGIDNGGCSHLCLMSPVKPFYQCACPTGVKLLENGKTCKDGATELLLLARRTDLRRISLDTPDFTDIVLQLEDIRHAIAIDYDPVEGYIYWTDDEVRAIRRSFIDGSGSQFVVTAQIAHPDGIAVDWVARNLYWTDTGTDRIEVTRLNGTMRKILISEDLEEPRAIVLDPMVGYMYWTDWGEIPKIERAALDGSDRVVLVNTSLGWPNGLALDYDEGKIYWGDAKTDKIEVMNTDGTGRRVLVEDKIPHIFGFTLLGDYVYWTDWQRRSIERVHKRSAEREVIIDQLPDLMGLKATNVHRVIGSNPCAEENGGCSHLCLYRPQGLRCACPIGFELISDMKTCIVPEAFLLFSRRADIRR
Description: Biolayer interferometry was performed as previously described (Bourhis et al., 2010). Briefly, biotinylated, His-tagged LRP6 proteins were purified from baculovirus-infected insect cells using the AviTag system (GeneCopoeia). Binding kinetics were measured on the Octet RED System (ForteBio) using Streptavidin High Binding FA Biosensors loaded with 20 μg/ml LRP6 protein.
In these assays, antibody binding to LRP6 protein was allowed to reach equilibrium, and the subsequent wavelength shift in the interference pattern is shown for association and dissociation phases of Wnt protein binding.

[2] = target: LRP6.E1-E2-Fc (human); test: ELISA
[3] = target: T2, LRP6.E3-E4-Fc (human); test: ELISA
T2 construct: also called LRP6.E3-4-Fc

[4] = target: LRP6 on HEK293 cells (human, UniProt O75581 20-1613); test: cell-based or functional assay
[5] = target: T3, LRP6 (human; form used in the assay not stated) (human, UniProt O75581 20-1253, limits assumed); test: SPR; LRP6 construct not stated; SPR
T3 construct: probably an E3-E4 fragment for SPR
T3 sequence: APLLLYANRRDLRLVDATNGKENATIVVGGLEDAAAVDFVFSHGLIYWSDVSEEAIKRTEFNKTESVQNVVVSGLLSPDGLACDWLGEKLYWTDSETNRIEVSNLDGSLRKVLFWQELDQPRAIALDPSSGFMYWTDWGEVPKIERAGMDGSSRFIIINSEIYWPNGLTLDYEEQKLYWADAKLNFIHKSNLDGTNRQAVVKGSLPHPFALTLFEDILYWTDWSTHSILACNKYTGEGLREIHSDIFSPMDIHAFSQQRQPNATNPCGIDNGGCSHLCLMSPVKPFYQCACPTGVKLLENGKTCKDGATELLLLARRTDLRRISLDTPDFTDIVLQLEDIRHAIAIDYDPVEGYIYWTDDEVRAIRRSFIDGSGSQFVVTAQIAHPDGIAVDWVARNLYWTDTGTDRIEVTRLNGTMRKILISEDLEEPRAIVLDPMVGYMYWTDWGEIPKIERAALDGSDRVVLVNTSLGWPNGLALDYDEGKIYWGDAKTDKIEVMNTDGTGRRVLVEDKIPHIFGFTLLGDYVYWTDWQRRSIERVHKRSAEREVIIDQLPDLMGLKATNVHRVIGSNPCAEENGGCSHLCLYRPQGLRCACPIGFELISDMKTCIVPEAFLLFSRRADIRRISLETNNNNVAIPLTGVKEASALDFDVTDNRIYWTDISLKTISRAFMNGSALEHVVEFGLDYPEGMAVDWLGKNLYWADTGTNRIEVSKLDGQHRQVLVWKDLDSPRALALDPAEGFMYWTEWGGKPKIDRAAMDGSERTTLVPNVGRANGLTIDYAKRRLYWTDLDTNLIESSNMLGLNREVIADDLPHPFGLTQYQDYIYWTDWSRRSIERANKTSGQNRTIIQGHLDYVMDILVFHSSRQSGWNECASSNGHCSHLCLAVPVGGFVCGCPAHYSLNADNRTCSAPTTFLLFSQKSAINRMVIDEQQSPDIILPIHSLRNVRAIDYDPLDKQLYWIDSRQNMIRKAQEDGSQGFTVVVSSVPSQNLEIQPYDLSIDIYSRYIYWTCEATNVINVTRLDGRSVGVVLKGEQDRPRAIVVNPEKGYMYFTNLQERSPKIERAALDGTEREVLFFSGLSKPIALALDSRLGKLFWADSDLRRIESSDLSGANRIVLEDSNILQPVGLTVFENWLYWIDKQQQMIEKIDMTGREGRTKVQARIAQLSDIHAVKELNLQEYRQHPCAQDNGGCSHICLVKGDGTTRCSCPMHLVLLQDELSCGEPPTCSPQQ

[6] = target: T3, LRP6 (human; form used in the assay not …); test: Scatchard analysis; format not stated; Scatchard analysis

T2 sequence (chain, as listed by the source limits assumed): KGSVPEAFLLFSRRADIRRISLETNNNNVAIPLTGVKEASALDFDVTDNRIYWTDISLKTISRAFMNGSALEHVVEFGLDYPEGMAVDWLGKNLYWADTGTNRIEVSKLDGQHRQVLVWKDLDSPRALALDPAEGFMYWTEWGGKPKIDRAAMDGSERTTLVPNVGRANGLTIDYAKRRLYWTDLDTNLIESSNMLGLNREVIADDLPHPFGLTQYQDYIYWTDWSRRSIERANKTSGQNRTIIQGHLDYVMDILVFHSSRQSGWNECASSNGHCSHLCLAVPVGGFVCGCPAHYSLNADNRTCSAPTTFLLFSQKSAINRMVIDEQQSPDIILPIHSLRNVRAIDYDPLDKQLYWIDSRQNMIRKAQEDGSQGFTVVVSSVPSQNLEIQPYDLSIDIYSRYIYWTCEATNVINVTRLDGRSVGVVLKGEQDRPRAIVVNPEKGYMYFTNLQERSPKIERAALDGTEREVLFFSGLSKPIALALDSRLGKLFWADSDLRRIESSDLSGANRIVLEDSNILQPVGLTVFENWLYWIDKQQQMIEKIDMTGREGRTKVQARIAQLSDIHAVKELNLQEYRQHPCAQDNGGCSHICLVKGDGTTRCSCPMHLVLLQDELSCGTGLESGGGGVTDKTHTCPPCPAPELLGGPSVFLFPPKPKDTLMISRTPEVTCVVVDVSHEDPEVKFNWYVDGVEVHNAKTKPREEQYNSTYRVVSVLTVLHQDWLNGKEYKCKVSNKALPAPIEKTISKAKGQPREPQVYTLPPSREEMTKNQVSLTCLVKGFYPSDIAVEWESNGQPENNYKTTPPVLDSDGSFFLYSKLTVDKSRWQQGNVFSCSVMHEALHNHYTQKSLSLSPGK
LRP6.E1-E2-Fc (human), sequence (chain, as listed by the source limits assumed): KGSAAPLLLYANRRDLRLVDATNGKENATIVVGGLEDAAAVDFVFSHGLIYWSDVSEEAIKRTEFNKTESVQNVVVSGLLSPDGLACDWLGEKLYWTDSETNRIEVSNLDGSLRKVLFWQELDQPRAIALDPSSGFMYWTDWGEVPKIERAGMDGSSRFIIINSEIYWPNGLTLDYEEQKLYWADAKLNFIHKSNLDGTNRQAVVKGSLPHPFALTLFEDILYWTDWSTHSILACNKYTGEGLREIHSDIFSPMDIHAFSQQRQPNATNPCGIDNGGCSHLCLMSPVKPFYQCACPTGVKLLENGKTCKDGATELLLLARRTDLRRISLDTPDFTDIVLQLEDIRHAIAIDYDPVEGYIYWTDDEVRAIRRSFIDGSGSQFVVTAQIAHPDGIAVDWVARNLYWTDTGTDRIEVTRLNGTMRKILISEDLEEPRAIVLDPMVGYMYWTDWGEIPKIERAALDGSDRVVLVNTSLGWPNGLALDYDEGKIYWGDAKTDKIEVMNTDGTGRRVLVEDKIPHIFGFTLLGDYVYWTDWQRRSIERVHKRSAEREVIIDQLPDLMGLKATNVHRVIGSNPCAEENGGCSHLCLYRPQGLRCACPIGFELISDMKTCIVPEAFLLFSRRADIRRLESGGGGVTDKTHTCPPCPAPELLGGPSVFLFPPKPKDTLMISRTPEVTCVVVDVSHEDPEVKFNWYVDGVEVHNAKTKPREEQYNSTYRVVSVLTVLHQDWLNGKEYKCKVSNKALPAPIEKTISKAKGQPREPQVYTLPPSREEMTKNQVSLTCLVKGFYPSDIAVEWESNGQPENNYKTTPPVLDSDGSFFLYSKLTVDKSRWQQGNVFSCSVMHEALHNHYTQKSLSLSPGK

Row | Binder | binding result [1] | binding result [2] | binding result [3] | IC50, inhibition of signaling (Wnt luciferase reporter) in Wnt3a-stimulated HEK293 cells [4] | Kd [5] [nM] | Kd [6] [nM]
1 | B1 | binds | – | – | – | – | –
2 | B2 | – | no binding | binds | ~1 ug/ml and ~6 nM | ~2 | ~0.6
